The values that follow come from article PMC2757638.

The test concerns the target recombinant Cse4 (S. cerevisiae) (UniProt P36012). Description: SEC. A general note: In gel filtration, larger molecules generally elute earlier.

For the substance “recombinant Cse4 (from UniProt P36012 1-229) (natural protein; other documents disagree on this pair)”, the stoichiometry N (as a rule, the number of molecules, sites or subunits per partner or assembly) was determined as 2.
